Laboratory results reported in publication PMC4133262, “Discovery of a Eukaryotic Pyrroloquinoline Quinone-Dependent Oxidoreductase Belonging to a New Auxiliary Activity Family in the Database of Carbohydrate-Active Enzymes” (PLoS ONE, 2014).

T1: PQQ domain of CcSDH (Coprinopsis cinerea, UniProt A0A0A8IDB7)
T1 construct: gene PDH; PQQ dehydrogenase domain only: N-terminal 221 residues (heme domain) and last 77 C-terminal residues (with CBM1) removed; begins at T222 (primer encodes TFVSC); secreted from Pichia pastoris
T1 sequence (A0A0A8IDB7 240-649): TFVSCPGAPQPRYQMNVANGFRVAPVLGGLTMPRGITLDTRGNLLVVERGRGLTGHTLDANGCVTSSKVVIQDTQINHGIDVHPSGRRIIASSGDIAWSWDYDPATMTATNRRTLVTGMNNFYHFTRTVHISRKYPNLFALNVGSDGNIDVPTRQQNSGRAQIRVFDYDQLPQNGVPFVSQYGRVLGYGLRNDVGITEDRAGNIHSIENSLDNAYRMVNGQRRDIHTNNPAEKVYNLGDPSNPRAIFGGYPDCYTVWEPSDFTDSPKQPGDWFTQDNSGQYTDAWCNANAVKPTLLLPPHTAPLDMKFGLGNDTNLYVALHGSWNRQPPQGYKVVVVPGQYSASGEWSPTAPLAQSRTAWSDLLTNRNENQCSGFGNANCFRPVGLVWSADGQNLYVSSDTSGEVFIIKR

B1: CcSDH (C. cinerea sugar dehydrogenase), full-length recombinant (Coprinopsis cinerea) (protein)
chain: QGSPTQWYDSITGVTFSRFYQQDTDASWGYIFPSASGGQAPDEFIGLFQGPASAGWIGNSLGGSMRNNPLLVGWVDGSTPRISARWATDYAPPSIYSGPRLTILGSSGTNGNIQRIVYRCQNCTRWTGGAGGIPTTGSAVFGWAFHSTTKPLTPSDPSSGLYRHSHAAQYGFDIGNARTTLYDYYLQQLTNAPPLSGGAPTQPPTQQPPTTTAPPPPPPSSTFVSCPGAPQPRYQMNVANGFRVAPVLGGLTMPRGITLDTRGNLLVVERGRGLTGHTLDANGCVTSSKVVIQDTQINHGIDVHPSGRRIIASSGDIAWSWDYDPATMTATNRRTLVTGMNNFYHFTRTVHISRKYPNLFALNVGSDGNIDVPTRQQNSGRAQIRVFDYDQLPQNGVPFVSQYGRVLGYGLRNDVGITEDRAGNIHSIENSLDNAYRMVNGQRRDIHTNNPAEKVYNLGDPSNPRAIFGGYPDCYTVWEPSDFTDSPKQPGDWFTQDNSGQYTDAWCNANAVKPTLLLPPHTAPLDMKFGLGNDTNLYVALHGSWNRQPPQGYKVVVVPGQYSASGEWSPTAPLAQSRTAWSDLLTNRNENQCSGFGNANCFRPVGLVWSADGQNLYVSSDTSGEVFIIKRMSGPIVQPPITQPPITTSPPTPTTPPVVQPPTTVAPPQASQTLWGQCGGQGWTGPTLCPANSVCRESNQWYSQCVPA
notes: mature protein without 18-residue signal peptide (726-aa ORF); AA8 cytochrome b + PQQ dehydrogenase + CBM1 domains; secreted from Pichia pastoris (pPICZalpha), glycosylated, 98 kDa on SDS-PAGE; genome locus Chromosome 6:1274274-1277156

Tests used:
PQQ domain of CcSDH = target: T1, PQQ domain of CcSDH; assay: isothermal titration calorimetry, single-site model; assay type: binding
purified protein = substrate: O=CC(=O)[C@@H](O)[C@H](O)[C@H](O)CO; assay: purified protein; assay type: biochemical, Coprinopsis cinerea; conditions: 50 mM Tris-HCl pH 8.5, 1 µM PQQ, 1 mM CaCl2, 50 µM cytochrome c, 30 °C, background reduction by D-glucosone subtracted

Molecule	Kd (PQQ domain of CcSDH)	Km (purified protein)	kcat (purified protein)	kcat/Km (purified protein)
O=C(O)c1cc(C(=O)O)c2c(n1)C(=O)C(=O)c1cc(C(=O)O)[nH]c1-2 [Pyrroloquinoline quinone]	1.11 nM	–	–	–
B1	–	7.9 (±0.3) mM	74.1 ± 1.4 s⁻¹	9370 M⁻¹ s⁻¹
